From US12459987B2, “Monoclonal antibodies for prevention and treatment of herpes simplex viral infections” (priority 2019, dated 2025)
Numbering of substitutions follows the chain as printed.

B1: HSV010-28: gB-1 specific mouse monoclonal IgG; IgH SEQ ID NO: 60, IgL SEQ ID NO: 62 (antibody, V domains shown)
VH: QIQLVQSGPELKKPGETVKISCKASGYTFTTYGMSWVKQAPGKGLKWMGWINTYSGVSTYADDFKGRFAFSLETSASTAYLQINNLKNEDTATYFCAQVNYAMDYWGQGTSVTVSSA
VL: DIVMTQSHKFLSTSVGDWVTITCKASQDVSTAVAWFQQKPGQSPKVLIYSASYRYTGVPDRFTGSGSGTDFTFTISSVQAEDLAVYYCQQHYSTPRTFGGGTKLEIKR
modifications: HSV010-28 heavy chain; HSV010-28 light chain
B2: HSV010-7: gB-1 specific mouse monoclonal IgG; IgH SEQ ID NO: 36, IgL SEQ ID NO: 38 (antibody, V domains shown)
VH: QVQLQQSGPELVKPGASVKLSCKASGYTFTNYDINWVKQRPGQGLEWIGWIYPRDGSTKYNEKFKGKATLTIDTSSSTAYMELHSLTSEDSAVYFCARGIFYVNYDVYWGQGTLVTVSAA
VL: DIQMTQSSSFLSVSLGGRVTITCKASDHINNWLAWYQQKPGHAPRLLISGAASLETGVPSRFSGSGSGKDYTLTITSLQTEDVATYYCQQYWSSPLTFGGGTKLELKR
modifications: HSV010-7 heavy chain; HSV010-7 light chain
B3: HSV010-6: gB-1 specific mouse monoclonal IgG; IgH SEQ ID NO: 44, IgL SEQ ID NO: 46 (antibody, V domains shown)
VH: QVQLQQPGAELVKPGASVKLSCKASGYTFTNYWIHWVKQRPGQGLEWIGMIHPNIGITHYSERFKSKATLTVDKSSTTAYMQLSSLTSEDSAVYYCARGSDSGSAWFAYWGQGTLVTVSAA
VL: B2 VL with F10Y, Q37L, H42N, I48M, A52T, T74S, S94T, G100A
modifications: HSV010-6 heavy chain; HSV010-6 light chain
B4: HSV010-9: gB-1 specific mouse monoclonal IgG; IgH SEQ ID NO: 48, IgL SEQ ID NO: 50 (antibody, V domains shown)
VH: B3 VH with A24S, N31S, I34M, I55S, S61N, R63K, S66T, T77S, Y94S, D101N
VL: B2 VL with F10Y, H42N, A52T, T74S, S94T, G100A
modifications: HSV010-9 heavy chain; HSV010-9 light chain
B5: HSV010-14: gB-1 specific mouse monoclonal IgG; IgH SEQ ID NO: 56, IgL SEQ ID NO: 58 (antibody, V domains shown)
VH: B3 VH with N31S, I55S, T58A, R63K, K67T, T77S, A92S, D101S
VL: B2 VL with F10Y, S26G, H42N, A52T, T74S, S94T, G100A
modifications: HSV010-14 heavy chain; HSV010-14 light chain
B6: HSV010-34: gB-1 specific mouse monoclonal IgG; IgH SEQ ID NO: 40, IgL SEQ ID NO: 42 (antibody, V domains shown)
VH: EVQLVESGGGLVQPGESLKLSCESNEYEFPSHDMSWVRKTPEKRLELVAAINSDGGSTYYPDTMERRFIISRDNTKKTLYLQMSSLRSEDTALYYCARHSSGYVLDYWGQGTSVTVSSA
VL: B2 VL with F10Y, N31H, H42N, A52T, T74S, T76A, S94T, L96Y, L106I
modifications: HSV010-34 heavy chain; HSV010-34 light chain
B7: HSV010-13: gB-1 specific mouse monoclonal IgG; IgH SEQ ID NO: 52, IgL SEQ ID NO: 54 (antibody, V domains shown)
VH: B3 VH with N31S, R40G, I55S, S61N, R63K, S66T, T77S, Y94C, D101S
VL: B2 VL with F10Y, V13E, H42N, A52T, T74S, G100A
modifications: HSV010-13 heavy chain; HSV010-13 light chain

target: gB-1 (Human herpesvirus 1, UniProt P10211); test: Luminex competition: inhibition of binding of BMPC-23 human IgG to gB-1; design: species or system HSV-1; settings: Table 3 summary
Protocol: FIGS. 10A-10G show the capacity of gB-1 specific mouse monoclonal IgG antibodies to inhibit binding of BMPC-23 human IgG antibodies to gB-1.
Finding BMPC-like antibodies. Nine out of 10 gB-1 specific mouse monoclonal IgG antibodies in FIG. 3 were tested for their capacity to inhibit binding of BMPC-23 human IgG antibodies to gB-1. Serially diluted, gB-1 specific mouse monoclonal antibodies or irrelevant, control mouse antibody (H33Lγ1) were incubated with gB-1 conjugated Luminex beads. After incubation, fixed concentration (2 ng/ml) of BMPC-23 human IgG antibodies were added to each well. After washing, mouse anti-human lgG-PE was added to detect binding of human BMPC-23 antibodies. […] Strong inhibition by HSV010-4 (>95% at 222 ng/ml), HSV010-7 (>90% at 222 ng/ml), and HSV010-34 (>80% at 222 ng/ml), shown in FIGS. 10B, 10F, and 10G, respectively, indicates these antibodies bind epitopes on gB-1 closely overlapping with the one recognized by BMPC-23. Therefore, similar protective efficacy as BMPC-23 is expected from these antibodies (experiments in progress). […] Protective efficacy of these antibodies need to be tested (experiments in progress).

| Molecule | Competition with BMPC-23 |
| --- | --- |
| B1 | Weak |
| B2 | Strong |
| B3 | Weak |
| B4 | Weak |
| B5 | Weak |
| B6 | Strong |
| B7 | Weak |

target: glycoprotein B of HSV-1 (gB-1) (Human herpesvirus 1, UniProt P10211); test: Luminex multiplex assay, binding to gB-1; settings: Table 3 summary
Protocol: FIGS. 9A and 9B are graphs of median fluorescence intensity (MFI) versus IgG concentration (ng/ml), showing the binding of various recombinant antibodies to gB-1 as measured by Luminex multiplex assay.
BMPC-23 binds HSV-1 gB (gB-1). The gB-1 binding of the antibodies was determined by Luminex multiplex assay. Mixtures of antigen (gB-1)-conjugated microspheres (1,000 counts each) were added to each well of 96-well filter plates (Millipore). After washing with PBS containing 1% BSA, 0.05% Tween 20 and 0.05% NaN3, serially diluted recombinant antibodies (5E7, 19G7, 18G4, 22E10, 3A2, 17G3, 22D10, 32H6, 33B8, 25H7, BMPC-23, and S5V2-29) were added to the plates and incubated for 2 hours at room temperature, with mild agitation of the plates. Samples were diluted in PBS containing 1% cow milk, 1% BSA, 0.05% Tween 20 and 0.05% NaN3. After washing, PE goat anti-mouse IgG was added to the plates and incubated for 1 hour at room temperature with mild agitation. After washing, microspheres were resuspended in PBS containing 1% BSA, 0.05% Tween 20 and 0.05% NaN3 and fluorescent signals from each microsphere were measured in a Bio-Plex® 3D machine.
Finding gB-1 specific HSV antibodies. After Nojima culture (single B-cell culture), HSV-specific antibodies were cloned from germinal center B cells and tested for binding to HSV-1 gB-1 by Luminex multiplex assay as described above. FIGS. 9A and 9B show the gB-1 binding results for 10 antibodies in comparison with BMPC-23. With the exception of BMPC-23, the antibodies in Table 3 were derived from germinal center B cells (lymph nodes) taken 15-17 days after primary vaccination with ΔgD-2. BMPC-23 was derived from bone marrow plasmacytes taken 2 weeks post-boost with ΔgD-2. Nucleotide sequences and amino acid sequences for the heavy-chains and light chains are shown in Table 4, as are the amino acid sequences for the light chain and heavy chain CDR1, CDR2, and CDR3.

| Molecule | Target antigens |
| --- | --- |
| B1 | gB |
| B2 | gB |
| B3 | gB |
| B4 | gB |
| B5 | gB |
| B6 | gB |
| B7 | gB |

tested on: HSV-2 G infected cell lysates; test: ELISA binding of recombinant antibodies to HSV-2 G infected cell lysates; design: species or system HSV-2 G strain; settings: Table 3 summary
Protocol: Binding of recombinant antibodies to HSV-2 G lysates was tested by ELISA. Both heavy and light chain V(D)J rearrangements were amplified from selected single B-cell culture wells (22D10, 32H6, 33B8, and 35H7) by standard RT-PCR. These cloned V(D)J rearrangements were introduced into expression vectors. Recombinant antibodies were obtained by co-transfection of these expression vectors into Expi293F cells. ≥4 mg of purified IgGs was obtained (not shown). […]
Briefly, mice were vaccinated with ΔgD-2 and then 16 days after vaccination, the draining, inguinal lymph nodes were harvested. GC B cells were isolated from these tissues and were cultured in Nojima cultures. Although overall cloning efficiency of GC B cells from these (shipped) tissues was lower than those from freshly isolated tissues (6% vs. 20%), 50 GC clones were obtained that were specific to HSV-2 G strain (HSV-2 G or HSV2-G) lysate. GC B cells from inguinal lymph nodes of mice vaccinated with ΔgD-2 were sorted directly into 96-well plates (1 cell/well). These GC B cells were then cultured in the presence of NB-21.2D9 feeder cells. After culture, presence of IgG was first determined by ELISA, and then the reactivity of culture supernatant IgG against HSV-2 G lysates (HSV-2 G) and uninfected Vero lysates were tested by ELISA.
Based on the obtained V(D)J sequences from each B-cell culture, paired heavy and light chains were re-expressed (as recombinant mouse IgG1 and IgG2c antibodies) in Expi293F cells (Kuraoka et al. Immunity 2016; DiLillo et al. Nature Medicine 2013). […] As expected, all recombinant antibodies reacted specifically with HSV-2 G lysates (FIG. 3). […] Binding of recombinant antibodies to HSV-2 G lysates was tested by ELISA. Both heavy and light chain V(D)J rearrangements were amplified from selected single B-cell culture wells (22D10, 32H6, 33B8, and 35H7) by standard RT-PCR. These cloned V(D)J rearrangements were introduced into expression vectors. Recombinant antibodies were obtained by co-transfection of these expression vectors into Expi293F cells. ≥4 mg of purified IgGs was obtained (not shown). […] These recombinant antibodies (≥4 mg each) were tested for identification of reacting antigen(s), in an in vitro FcγRIV activation assay (Promega FcγRIV ADCC Reporter Bioassay)(FIG. 4), and in vivo protection assay. […]

| Molecule | Binding to HSV-lysate |
| --- | --- |
| B1 | Yes |
| B2 | Yes |
| B3 | Yes |
| B4 | Yes |
| B5 | Yes |
| B6 | Yes |
| B7 | Yes |
